Several values for one entry are separate records, joined by “and”; a condition that tells them apart may be missing. Equal entries are not always repeated. Where two headings read alike, the source gives them in different places.
Legend:
[1] = molecular target: Phosphatase and tensin homolog deleted on chromosome 10 (PTEN) (African green monkey (endogenous in Vero)); test: co-IP; immunoprecipitation with PTEN, Rak or β-arrestin antibodies from Vero cells, mock, ARV-infected or p17-transfected, also with Rak shRNA, Rock-1 shRNA, Y-27632 or TBB; 500 ug cellular proteins with 4 ug antibody at 4°C overnight; Western blot; amounts normalized to mock controls
[2] = molecular target: Phosphatase and tensin homolog deleted on chromosome 10 (PTEN) (African green monkey (endogenous in Vero)); test: as above; remark: listed apart in the source

Chain of Rak (P42685 whole entry): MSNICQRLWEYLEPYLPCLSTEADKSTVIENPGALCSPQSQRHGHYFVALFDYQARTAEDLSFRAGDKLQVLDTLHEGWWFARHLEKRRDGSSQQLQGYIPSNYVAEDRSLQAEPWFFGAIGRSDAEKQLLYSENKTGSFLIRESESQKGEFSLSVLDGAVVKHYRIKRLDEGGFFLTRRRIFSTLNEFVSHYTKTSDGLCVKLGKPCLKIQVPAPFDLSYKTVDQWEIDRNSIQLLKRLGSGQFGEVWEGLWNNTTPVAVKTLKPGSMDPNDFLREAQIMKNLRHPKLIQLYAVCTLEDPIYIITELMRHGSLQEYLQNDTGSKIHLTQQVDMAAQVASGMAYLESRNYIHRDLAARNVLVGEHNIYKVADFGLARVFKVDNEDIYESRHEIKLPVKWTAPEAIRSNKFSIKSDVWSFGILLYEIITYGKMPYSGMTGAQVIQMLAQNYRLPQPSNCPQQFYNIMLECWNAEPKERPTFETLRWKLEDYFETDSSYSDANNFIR

Substance: E3 ligase NEDD4-1 (natural protein)
- other [1]: 2.8 fold and 3.1 fold
- other [2]: 2.35 fold and 2.45 fold

Substance: Rak (from UniProt P42685-1 1-505) (natural protein)
- fold increase of Rak-PTEN association against mock, ARV-infected cells [1]: 3.8 fold
- fold increase of Rak-PTEN association against mock, p17-transfected cells [1]: 4.5 fold

Substance: β-arrestin (natural protein)
- fold increase of β-arrestin-PTEN association against mock, ARV-infected cells [1]: 3.5 fold
- fold increase of β-arrestin-PTEN association against mock, p17-transfected cells [1]: 6 fold
